Assays:
Assay in all cases: pull-down binding Z-score (relative to library population); higher = stronger binding
[1] = test system: G-clamp-N3 (biotin conjugate); settings: RNA library: Library-1 (pre-miRNA loops + repeats)
Summary of the method: (§1)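 A heat-folded, dye-end-labelled (Cy5 or Cy3) RNA library (1 μg, phosphate/NaCl/KCl buffer) was exposed for 60 min at 25 °C to streptavidin beads holding 100 pmol of biotin-conjugated small molecule. RNA retained on the beads was eluted in hot SDS and hybridised to a DNA barcode microarray for 20 h at 55.5 °C. Binding scores were Z-scores against the library mean and standard deviation, calculated after subtracting beads alone and taking trimmed means of replicate probes.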

[2] = test system: TO-N3 (biotin conjugate); settings: RNA library: Library-2
Summary of the method: as §1

[3] = test system: TO-3-N3-2 (biotin conjugate); settings: RNA library: Library-2
Summary of the method: as §1

[4] = test system: TO-3-N3 (biotin conjugate); settings: RNA library: Library-2
Summary of the method: as §1

[5] = test system: TO-N3-2 (biotin conjugate); settings: RNA library: Library-2
Summary of the method: as §1

Sequence	pull-down binding Z-score [1]	pull-down binding Z-score [2]	pull-down binding Z-score [3]	pull-down binding Z-score [4]	pull-down binding Z-score [5]
GUGCACUUCAUUUACGAUGUAG [hsa-mir-1193]	-0.679	0.741	0.167	0.515	0.478
CUUCAGAGCAGGGUUUGGUCUGUGCUUCUCUG [hsa-mir-6719]	0.184	-0.222	-0.245	-0.415	0.452
GUUUGGCAGGACAGUUUCCAAGC [hsa-mir-6779]	-0.893	-0.451	-0.323	-0.587	0.15
GGAGUCCUCUAGACACC [hsa-mir-6510]	-0.716	0.373	-0.348	0.483	-0.175
CGCGCCCGGCCUAACUUUUAAGAAACGUCGGCCCGGGAGCG [hsa-mir-5095]	-0.0298	1.27	0.695	1.24	1.15
CCAUUUACUUGAACCUUUAGGAGUGA [hsa-mir-489]	-0.68	0.319	-0.05	0.389	0.625
UGUUCGCUUUAUUUAUGAUGAAUCA [hsa-mir-539]	0.0951	-0.916	-0.121	-0.769	-1.01
GGGUCGUGGGAAAGUGUUGACCC [hsa-mir-4655]	1.79	0.5	0.276	0.166	0.588
GUCAGGAGUGGCUUUCCUGAC [hsa-mir-4462]	-0.232	0.279	-0.271	0.414	-0.397
UGGUCAGGCGGCU [hsa-mir-3917]	0.0721	0.0412	-0.061	-0.142	0.442
UCUUGGUGCCACCAUUGAGAACGCCAGGA [hsa-mir-492]	-1.02	-0.279	-0.506	-0.644	0.868
AGAAAAUUUUUCUCCAAAGUUUUCU [hsa-mir-4659b]	-0.123	-1.06	-0.443	-0.634	-1.66
AUUGUACUGUGGUGGUUACAAU [hsa-mir-34b]	0.118	-0.984	-0.429	-0.851	-1.19
GGGCCAGUCUGACCGUUUCUAGGCG [hsa-mir-551a]	0.753	1.41	0.662	0.541	1.75
CAAGAGGUGUGAGCCACACACACGCCUGGCCUCCUG [hsa-mir-5699]	1.28	0.813	0.0475	0.771	0.687
UGCAGUGAGCAACCUACACAACUGCA [hsa-mir-5589]	-0.716	-0.0697	-0.317	-0.0632	-0.188
UAUUUUGUUAUUCUGGUCACAGAAUGACCUAGUA [hsa-mir-630]	-1.22	-0.308	-0.134	0.141	-1.11
UUUUGCUGUUACUUUUAAUGGCAAAA [hsa-mir-548az]	-0.982	-0.752	-0.34	-0.418	-1.3
GAAUUCGCUUUAUUUAUGUUGAAUC [hsa-mir-377]	-0.856	-0.944	-0.33	-0.514	-0.874

Sequence	pull-down binding Z-score [1]	pull-down binding Z-score [2]	pull-down binding Z-score [3]	pull-down binding Z-score [4]	pull-down binding Z-score [5]
UGUUUUUGCCAUUAAAAAUAAUGGCAUUAAAAGUAAUGGCAAAAACG [hsa-mir-548al]	-0.871	-1.01	-0.431	-0.484	-1.14
GGGCGUGGUGGACAGCGAUGCAUCCC [hsa-mir-6803]	1.56	0.84	0.187	0.532	1.19
UGGAGGUGAUGGGGGCAGGGGAUGGGUCUCACCCUCCC [hsa-mir-5088]	0.537	3.11	2.93	3.33	2.59
UUUGCCGUUAAAAGUAAUGGCA [hsa-mir-548a-2]	-1.31	-0.368	-0.17	-0.228	-0.106
AUGGAGAACGCCCCCACCAGUUCCCAC [hsa-mir-6767]	-0.992	1.68	0.564	1.67	0.67
UGCUCAGUGGAGUUAUUUUGAGCA [hsa-mir-4495]	1.2	-1.42	-0.621	-1.01	-1.2
UUUUGAAAGUAACUUGGCGAAA [hsa-mir-548ad]	1.69	-0.0602	-0.118	-0.179	-0.299
GAUGAAGAUUAAUCCCUAAUCCCCAACA [hsa-mir-6757]	-1.77	0.0739	-0.0684	-0.283	0.739
GUUCGGGGGUUCCGACGGCGAC [hsa-mir-6790]	3.09	2.67	0.957	2.61	1.76
GGCGCUGGGACCCCACUAGGGUGGCGCC [hsa-mir-4488]	1.6	1.25	0.254	1.33	0.687
CAGCCUGUUGUCAAGGCUG [hsa-mir-3130-1]	-0.13	0.712	0.129	0.535	-0.199
GUCUCGGUCCUUUGGAACGUGGC [hsa-mir-4470]	-0.378	-0.607	-0.387	-0.39	-0.476
AUUGAGUUACCUUUCUGACUUUCCCACU [hsa-mir-28]	-0.594	-0.0391	0.0519	0.108	-0.279
AGUGGUGCAAUCUCAGUUCACU [hsa-mir-3135a]	-0.112	-0.0142	-0.238	0.121	-0.196
AGUAGCUGGGAAUACAGGUGUGUGCCACCAUGCCUCUACAAGCUACC [hsa-mir-7851]	-0.609	-0.0861	-0.134	-0.469	0.445
CCCACCCUGAGUUUUGGUGGG [hsa-mir-6508]	-0.873	-0.245	-0.26	-0.066	-1.22
GAGAACUCACGGUGCCUGUGGUUCGA [hsa-mir-3125]	-0.479	0.312	-0.203	-0.41	1.49
CCAUGUGGUUGCGAGGUAUGAGUAAAACAUGG [hsa-mir-218-1]	-0.319	-0.567	-0.174	-0.697	0.275

— the supplement of paper PMC11865577
